In patent US7786356B2, “Method for the production of calendic acid, a fatty acid containing delta 8,10,12 conjugated double bonds and related fatty acids having a modification at the delta 9 position” (E.I. du Pont de Nemours and Company, priority 1999, dated 2010):

System: somatic soybean embryos
Assay: Production of dimorphecolic acid in transgenic somatic soybean embryos expressing DMFad2-1 and/or DMFad2-2
Assay type: cell-based
From the text: Initially, the open-reading frames of cDNAs for DMFad2-1 and DMFad2-2 were amplified by PCR using Pfu polymerase (Stratagene) to generate the appropriate restriction enzyme sites for cloning into the soybean expression vector. For amplification of the open-reading frame of the DMFad2-1 cDNA, EST dms2c.pk006.d7 (SEQ ID NO: 10 for the nucleotide sequence, and SEQ ID NO:11 for the polypeptide translation product) was used as the template, and the oligonucleotide primers were: 5′-tatgcggccgcAAATGGGAGCAGGAGGTTG-3′ (sense, SEQ ID NO:22) and 5′-tttgcggccgc[…]-3′ (antisense, SEQ ID NO:23). For amplification of the open-reading frame of the DMFad2-2 cDNA, EST dms2c.pk001.113 (SEQ ID NO:12 for the nucleotide sequence, and SEQ ID NO:13 for the polypeptide translation product) was used as the template, and the oligonucleotide primers were: 5′-tgcggccgc[…]-3′ (sense, SEQ ID NO:24) and 5′-tagcggccgcTGATTAATCAAGTCTTAG-3′ (antisense, SEQ ID NO:25). The nucleotides shown in lower case are not Dimorphotheca sequences, but instead encode an added NotI site along with additional bases to facilitate restriction enzyme digestion. The resulting PCR products were subcloned into the intermediate vector pCR-Script AMP SK(+) (Stratagene) according to the manufacturer's protocol. […]
The expression constructs containing the DMFad2-1 and DMFad2-2 coding sequences in vector pKS67 were transformed into somatic soybean embryos using the biolistic method as described in Example 10. […] The fatty acid compositions of the resulting transgenic soybean embryos were then assessed for the presence of novel fatty acid structures. […] The resulting transgenic soybean embryos selected for hygromycin resistance were analyzed for alterations in fatty acid content relative to untransformed embryos. […] The recovered fatty acid methyl esters and derivatives were then analyzed using a Hewlett-Packard 6890 chromatograph fitted with an Omegawax 320 column (30 m×0.32 mm inner diameter; Supelco). […] Fatty acid methyl esters were also analyzed by GC-MS an HP6890 interfaced with a HP5973 (Hewlett-Packard) mass selective detector. […]

B1: DMFad2-2: Dimorphotheca sinuata Δ-9 hydroxy-conjugase (SEQ ID NO:12/13) converting trans-linoleic acid to dimorphecolic acid (protein, listed as Dimorphotheca sinuata)
chain: MGASEEMKVLERVPVSKPPFEYNDLKKAVPPHCFTRSLSLSFYYLFYDLIKVCILFYVASKYIPMLPYSLSCIVWPLYWFFQGAFLGRLWMIGHECGHHSFSNYRWLDDTVGFLVHTATLTPYFSFKYSHRNHHAHTNSLEYDEVHVPKIRKFKSEHLYSEFLTNNPFGLVVNMVFELTFGYPSYLIFNYSGRKLTQAGFASHLYPQSPIFNDSERNHVFFSDVGICIVLYALYRIAIAKGAMLVLYVYGLPWVVMSAFIFSLTYLQHTHPSIPHYDSTEWNWLRGALSSIDRELAGAFNIKKTHYHVVHHLFPFIPEYHAHDATEALKPILGPYYKYDGTPFYKALWREMKDCLYVESDDGPNKTGVYWFKTKT
"DMFad2-2 alone" transformants
  dimorphecolic acid accumulation: less than 0.1%
Embryo extracts of FIG. 9 panels B and C
  18:2Δ9cis,12trans in extracts of somatic soybean embryos (FIG. 9): lacked detectable amounts
Experiment MSE 229, GC-MS selected ion 225 m/z
  dimorphecolic acid isomers, share of the total fatty acids: < 0.1%
